Key:
[1] = target: T1, Construct A (mIL2- 2x(SG4) - MMPcs1 - 2x(G4S) - IL2Ralpha - 6His)
T1 chain: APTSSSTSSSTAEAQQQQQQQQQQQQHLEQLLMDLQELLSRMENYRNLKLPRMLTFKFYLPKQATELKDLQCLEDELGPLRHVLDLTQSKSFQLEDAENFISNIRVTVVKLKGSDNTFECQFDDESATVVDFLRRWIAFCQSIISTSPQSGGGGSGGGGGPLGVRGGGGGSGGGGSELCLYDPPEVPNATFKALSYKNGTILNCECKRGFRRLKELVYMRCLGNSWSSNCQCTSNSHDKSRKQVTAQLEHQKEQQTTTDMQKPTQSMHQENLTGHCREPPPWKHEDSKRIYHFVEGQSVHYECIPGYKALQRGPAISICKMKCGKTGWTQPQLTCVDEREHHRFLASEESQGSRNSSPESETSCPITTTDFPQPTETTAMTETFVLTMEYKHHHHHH

[2] = target: T2, Construct B (m IL2-2x(SG4) - MMPcs1 - 2x (G4S) - IL2Ralpha - mIgG1 Fc)
T2 chain: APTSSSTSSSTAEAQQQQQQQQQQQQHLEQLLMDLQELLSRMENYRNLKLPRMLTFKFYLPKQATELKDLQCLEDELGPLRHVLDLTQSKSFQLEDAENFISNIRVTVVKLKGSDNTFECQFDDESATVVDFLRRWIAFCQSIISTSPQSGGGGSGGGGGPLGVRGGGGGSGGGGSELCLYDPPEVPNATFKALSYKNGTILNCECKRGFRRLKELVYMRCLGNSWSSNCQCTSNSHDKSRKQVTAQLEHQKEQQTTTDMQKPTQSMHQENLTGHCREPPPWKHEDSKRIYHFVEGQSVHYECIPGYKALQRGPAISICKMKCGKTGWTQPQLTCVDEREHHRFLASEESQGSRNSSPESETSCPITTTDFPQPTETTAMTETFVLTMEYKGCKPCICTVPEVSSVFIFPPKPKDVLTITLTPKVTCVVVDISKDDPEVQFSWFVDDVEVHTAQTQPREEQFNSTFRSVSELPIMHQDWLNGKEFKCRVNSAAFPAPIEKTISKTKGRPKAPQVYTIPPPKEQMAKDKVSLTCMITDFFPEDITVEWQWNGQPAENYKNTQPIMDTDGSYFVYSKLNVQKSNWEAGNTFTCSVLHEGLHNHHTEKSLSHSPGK

[3] = target: Construct E (Hu IL2(C125S)- 2x(SG4) - MMPcs1 - 2x(G4S) - IL2Ralpha - hu IgG1 Fc - 6xHIS)
Chain of Construct E (Hu IL2(C125S)- 2x(SG4) - MMPcs1 - 2x(G4S) - IL2Ralpha - hu IgG1 Fc - 6xHIS) (chain, as listed by the source C125S): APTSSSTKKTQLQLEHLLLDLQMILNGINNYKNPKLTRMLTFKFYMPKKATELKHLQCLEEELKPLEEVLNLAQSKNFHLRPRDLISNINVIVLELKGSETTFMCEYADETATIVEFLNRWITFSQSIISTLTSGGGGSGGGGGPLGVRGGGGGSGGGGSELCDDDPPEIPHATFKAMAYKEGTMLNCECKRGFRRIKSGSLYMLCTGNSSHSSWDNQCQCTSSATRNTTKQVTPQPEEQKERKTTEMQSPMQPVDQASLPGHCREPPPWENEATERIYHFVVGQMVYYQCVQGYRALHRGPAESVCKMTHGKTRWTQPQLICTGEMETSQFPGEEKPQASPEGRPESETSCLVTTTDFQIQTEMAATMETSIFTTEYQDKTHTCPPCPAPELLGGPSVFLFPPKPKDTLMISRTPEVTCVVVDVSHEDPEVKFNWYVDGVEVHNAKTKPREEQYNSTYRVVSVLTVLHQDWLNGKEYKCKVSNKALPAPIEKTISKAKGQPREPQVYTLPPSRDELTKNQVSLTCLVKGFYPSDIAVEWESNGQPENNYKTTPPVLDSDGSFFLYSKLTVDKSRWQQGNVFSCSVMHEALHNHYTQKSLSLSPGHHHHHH

B1: Recombinant MMP9 (R&D Systems), activated with p-aminophenylmercuric acetate (protein)
chain: FQTFKGLKWDHHNITYWIQNYSEDLPRDMIDDAFARAFAVWGEVAPLTFTRVYGPEADIVIQFGVAEHGDGYPFDGKDGLLAHAFPPGAGVQGDAHFDDDELWSLGKGVVIPTYYGNSNGAPCHFPFTFEGRSYSACTTDGRNDGTPWCSTTADYDKDGKFGFCPSERLYTEHGNGEGKPCVFPFIFEGRSYSACTTKGRSDGYRWCATTANYDQDKLYGFCPTRVDATVVGGNSAGELCVFPFVFLGKQYSSCTSDGRRDGRLWCATTSNFDTDKKWGFCPDQGYSLFLVAAHEFGHALGLDHSSVPEALMYPLYSYLEGFPLNKDDIDGIQYLYGRGSKPDPRPPATTTTEPQPTAPPTMCPTIPPTAYPTVGPTVGPTGAPSPGPTSSPSPGPTGAPSPGPTAPPTAGSSEASTESLSPADNPCNVDVFDAIAEIQGALHFFKDGWYWKFLNHRGSPLQGPFLTARTWPALPATLDSAFEDPQTKRVFFFSGRQMWVYTGKTVLGPRSLDKLGLGPEVTHVSGLLPRRLGKALLFSKGRVWRFDLKSQKVDPQSVIRVDKEFSGVPWNSHDIFQYQDKAYFCHGKFFWRVSFQNEVNKVDHEVNQVDDVGYVTYDLLQCP
How did the “cleavage of the fusion protein, SDS-PAGE and Western blot” value (from here on “cleavage … SDS-PAGE and Western blot”) [1] turn out when B1 was run?
The value was “essentially complete cleavage of the fusion proteins by MMP9 protease was seen after overnight incubation”.

And the “cleavage of the fusion protein, Western blot” value [1]?
The value was “Cleavage product was detectable at 1 hour, and the full-length cytokine prodrug was substantially undetectable at the overnight +MMP time point”.

What about the “cleavage … SDS-PAGE and Western blot” value [2] of the same protein?
Its value is “essentially complete cleavage of the fusion proteins by MMP9 protease was seen after overnight incubation”.

And the “cleavage of the fusion protein, Western blot” value [2]?
Its value is “Cleavage product was detectable at 1 hour, and the full-length cytokine prodrug gave only a faint band at the 20 hour +MMP time point”.

And the “cleavage … SDS-PAGE and Western blot” value [3]?
The value was “essentially complete cleavage of the fusion proteins by MMP9 protease was seen after overnight incubation”.

What about the “cleavage of the fusion protein, Western blot” value [3] of the same protein?
Its value is “Cleavage product was detectable at 1 hour, and the full-length cytokine prodrug gave essentially no band at the 22 hour +MMP time point”.
